This note sets out measurements from patent US7060670B1, “Stereoselective antifibrillogenic peptides and peptidomimetics thereof” (Neurochem (International) Limited, priority 1999, dated 2006).

No end group written: not given here.

What all share (format): biochemical
Assay [1] addresses T1, Aβ(1–40) (Homo sapiens, UniProt P05067).
T1 construct: Aβ (1–40) 95% purity (American Peptide Company); purchased American Peptide Company, Inc 62-0-78
Nature of the assay: thioflavin T fluorescence assay for fibrillogenesis of Aβ(1–40). The text has this: The thioflavin T fluorescence assay for fibrillogenesis is based on the principle that the fluorescent dye, thioflavin T, binds specifically to fibrillar, but not to unaggregated Aβ peptide (LeVine III, H., 1993, Protein Science 2:404–410). Upon binding, thioflavin T develops a characteristic fluorescence (Naiki, H., et al., 1996, Lab. Invest. 74: 374–383) which can be easily detected. The dye is believed to interact with the stacked cross-β pleated sheets, the common structural motif of all amyloids (LeVine III, H., 1995, Amyloid: Int. J. Exp. Clin Invest. 2:1.6). Thioflavin T is widely used to assay the effect of compounds on Aβ peptide fibrillogenesis (Bronfman, P. C., et al., 1995, Neuroscience Lett. 218:201–203). In this assay test compounds are incubated with a solution of Aβ(1–40) (20 μM) containing 10 μM thioflavin T, in 0.02M Tris/0.02M acetate/0.15M NaCl/0.005% azide/pH 7.40 at 37° C. in sealed 384 well microplates. Readings (ex 430 nm/em 485 nm) are taken at various time intervals with a microplate fluorescence reader. An increase in fluorescence signifies the appearance of amyloid or intermediates in the production of amyloid. Inhibitors of fibrillogenesis will lead to less fluorescence production. The results illustrated in Table 1 below, are based on the fluorescence production in the presence of test peptides at either 20 μM or 80 μM concentration, at the time intervals of 5, 19, 45, 67, 77 and 90 hours, compared to a control, buffer alone, without added inhibitory peptide. Protocol Aβ peptide: Aβ (1–40) 95% purity (American Peptide Company, Inc, Sunnyvale, Cal. USA, cat. 62-0-78) is disaggregated in trifluoroacetic acid and filtered through a […] filter, (Whatman Anotop 25 plus, 0.02 μm, Catalogue no. 6809 4102) in hexafluoroisopropanol (HFIP). Solutions of Aβ (1–40) at 600 μM in HFIP are stored at −80° C. Assay mixture: The mixture is prepared as two solutions that are combined upon addition to the 384 well microplate (Corning Costar cat. 3705). • i) Solution A consists of test peptides in 0.02M Tris/0.02M acetate/0.15M NaCl/0.01% azide at pH 7.40 or buffer alone (control), • ii) Solution B consists of Aβ(1–40) 40 μM, thioflavin T 20 μM in 0.02M Tris/0.02M acetate/0.15M NaCl at pH 7.40. This solution is prepared by drying the Aβ peptide under nitrogen and then resuspending this in 0.04M Tris base with 15 minutes sonication. An equal volume of 0.04M acetic acid containing 0.3 M NaCl is added and the solution is adjusted to pH 7.40±0.02. A small volume of 5 mM thioflavin T is added to the solution to give a final 20 μM concentration of thioflavin T. • iii) The microplate is loaded with 40 μL of solution A followed by 40 μL of solution B which gives a final 20 μM Aβ(1–40), 10 μM thioflavin T, and either 20 μM, 80 μM or 100 μM test compound in 0.02M Tris/0.02M acetate/0.15M NaCl/0.005% azide, pH 7.40. The plate is sealed and loaded into the microplate fluorescence reader. Fluorescence measurement data analysis: The HTS-7000 Bio Assay Reader, Perkin Elmer, is used to perform kinetic runs of about 5 days. Readings were taken at various time intervals, 5, 19, 45, 67, 77 and 90 hours, with one minute shaking before each reading. Bandpass filters used were: excitation 430 nm, emission […]. Calculations The rank order of efficacy of the peptides is determined by observing which peptides allow the appearance of fluorescence, above the background level, first. For example in the presence of buffer control alone, fluorescence appears earlier than when any of the peptides is present.

For assay [2], the system named is all-[D]-Aβ (1–40). The experiment in a line: thioflavin T fluorescence assay for fibril formation by [D]-Aβ (1–40). The note with it: FIG. 3.
The target in assay [3] is T2, Aβ40 (Homo sapiens, UniProt P05067).
T2 construct: when incubated with Aβ40 under physiological conditions
T2 sequence (P05067 672-711 limits assumed): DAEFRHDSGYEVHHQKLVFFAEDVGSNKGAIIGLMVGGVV
Nature of the assay: electron microscopy of peptide/Aβ40 mixture. The following applies: mixture of peptide and Aβ40. An excerpt: (§1) It is the understanding of the inventors that this interesting observation will lead to a greater understanding of fibrillogenesis of Aβ40 and Aβ42 peptides and as a result, will provide important information for the design of potent anti-fibrillogenic compounds for Aβ, other amyloidotic peptides such as AA, AL and IAPP for the treatment of diseases such as Alzheimer's, Type II Diabetes and amyloidosis related disorders. The same principle can also be applied to the design of peptide type compounds for the inhibition of binding of various chemokines to the cell surface as well as inhibition of self assembly and cellular adherence of prion proteins.

The target in assay [4] is Aβ (Homo sapiens, UniProt P05067). The experiment in a line: Aβ-NBD environmental probe fibrillogenesis assay. The following applies: in vitro.
Aβ, sequence (P05067 672-711 limits assumed): as above
In assay [5] the target is T2, Aβ40. Nature of the assay: CD spectrum of Aβ40 incubated with peptide (β-sheet content).
Description: as §1

T1 sequence (P05067 672-711 limits assumed): as above

KLVFFA [reference compound]: in assay [1] (rank, 1 = strongest activity, 11 = weakest, peptide 20 μM, Aβ(1–40) 20 μM, by first appearance of fluorescence over 5-90 hours), the “Order Of Potency of Peptide Inhibitors, Tested at 20 μM” value is 8 (L) KLVFFA. Also, the “Order Of Potency of Peptide Inhibitors, Tested at 80 μM” value in assay [1] (rank, 1 = strongest activity, 11 = weakest, peptide 80 μM, Aβ(1–40) 20 μM, by first appearance of fluorescence over 5-90 hours) was 8 (L) KLVFFA. The “inhibition of all-[D]-Aβ (1–40) assembly compared with the opposite stereoisomer” value in assay [2] is recorded as “more potent inhibitor”.

Take KVDDQD [hexapeptide]: the “anti-fibrillogenic activity in thioflavin-T based fluorescence assay” value in assay [1] (in vitro) was “confirm this finding”. In addition, the “fibrils seen by electron microscopy” value in assay [3] was “failed to show any fibrils”. For the same substance, the “anti-fibrillogenic activity in NBD based fluorescence assay” value in assay [4] was “confirm this finding”. Also, the “β-sheet content of Aβ40 by CD spectrum after 24 hours incubation” value in assay [5] (24 hours) is “dramatic increase”. For the same substance, the “β-sheet content of Aβ40 by CD spectrum at time t=0” value in assay [5] (physiological conditions, t=0) is on record as “increase”.
